Source: patent US20140179547A1 (NOVIMMUNE S A, published 2014)

T1: human interferon gamma (hIFNγ) (human, UniProt P01579 24-166, limits assumed)
T1 construct: also called INFγ
T1 sequence (looked up): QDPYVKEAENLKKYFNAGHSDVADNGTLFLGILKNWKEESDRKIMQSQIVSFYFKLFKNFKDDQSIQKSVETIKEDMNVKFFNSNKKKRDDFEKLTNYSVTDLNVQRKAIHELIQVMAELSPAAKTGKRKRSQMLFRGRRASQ


What was measured:
[1] = biological target: T1, human interferon gamma (hIFNγ); experiment: SPR (Biacore), INFγ immobilised, IgG injected
Description: (§1) FIGS. 12A and 12B are a series of illustrations and graphs depicting SPR analysis of IgGκλ bispecific antibodies. In FIG. 12A, INFγ was immobilized at the surface of the Biacore chip and anti-IL6RC monospecific antibody ([…]), anti-INFγ monospecific antibody (IgGλ) and, anti-IL6RC/anti-INFγ bispecific antibody (IgGκλ) were injected on the surface followed by injection of IL6RC. In FIG. 12B, the anti-IL6RC/anti-INFγ bispecific antibody (IgGκλ) was immobilized on the chip surface and anti human-Kappa and anti-human Lambda antibodies were injected at the same concentration. The experiment was repeated inverting the order of antibody injection with identical results.
(§2) The capacity of the bispecific IgGκλ to interact with both targets simultaneously was tested by SPR. Biotinylated INFγ was immobilized on streptavidin coating CM5 Biacore chip. The monospecific and the bispecific antibodies were injected on this surface followed by injection of IL6RC. […] SPR was also used to assess the relative amounts of Kappa and Lambda light chains in the purified bispecific antibody. IgGκλ was directly immobilized via amine coupling on the surface of a CM5 Biacore chip and an anti-human CKappa antibody was injected followed by an anti-human CLambda antibody at the same concentration.

[2] = biological target: T2, hIL6 Receptor Complex (IL-6/IL-6R receptor complex) (human, UniProt P08887 20-358; P05231 30-212, limits assumed); experiment: SPR (Biacore), INFγ immobilised, IgGλ injected, then IL6RC injected
T2 construct: also called IL6RC; hIL6RC
Description: as §1, §2

[3] = biological target: T1, human interferon gamma (hIFNγ); experiment: SPR, Biacore 2000, IgG captured on anti-human IgG, antigen as analyte, 1:1 Langmuir fit
Description: The affinity and binding kinetics of monospecific anti-INFγ IgGλ, the anti-IL6RC IgGκ and the bispecific IgGκλ antibodies were characterized on a Biacore 2000 instrument (Biacore AB, Uppsala, Sweden). 200RU of a goat anti-human polyclonal IgG (ahIgG; Biacore) were immobilized by EDC/NHS chemistry on a CM5 Biacore chip. This surface was used to capture monospecific or bispecific human IgG. The surface was regenerated after each cycle by injection of 10 mM glycine pH=1.5 at 30 μL/min, for 30 s followed by 1 min of stabilization time in HBS-EP buffer. […] Similar affinity values were obtained for the monospecific antibodies and the bispecific IgGκλ antibodies.

binding result [1]	binding result [2]	Kd [3] [nM]	koff [3] [s⁻¹]	kon [3] [M⁻¹ s⁻¹]	Binder
no binding	–	–	–	–	monospecific anti-IL6RC IgGκ antibody (antibody, V domains shown, also called IgGκκ; mono κ) VH: not shown VL: EIVLTQSPATLSLSPGERATLSCRASQSVSSYLAWYQQKPGQAPRLLIYDASNRATGIPARFSGSGSGTDFTLTISSLEPEDFAVYYCQQWLPTTPATFGQGTKVEIKR
–	no binding	0.196	0.000119	608000	monospecific anti-INFγ IgGλ antibody (antibody, V domains shown, also called IgGλλ; mono λ) VH: not shown VL: NFMLTQPHSVSESPGKTVTISCTRSSGSIASNYVQWYQQRPGSSPTTVIYEDNQRPSGVPDRFSGSIDSSSNSASLTISGLKTEDEADYYCQSQSWDGNHIVFGGGTKLTVLG
–	–	0.184	0.000169	919000	anti-IL6RC/anti-INFγ bispecific IgGκλ antibody (bispecific antibody, also called κλ-body; κλ body) heavy: not shown light 1: not shown light 2: NFMLTQPHSVSESPGKTVTISCTRSSGSIASNYVQWYQQRPGSSPTTVIYEDNQRPSGVPDRFSGSIDSSSNSASLTISGLKTEDEADYYCQSQSWDGNHIVFGGGTKLTVLGQPKAAPSVTLFPPSSEELQANKATLVCLISDFYPGAVTVAWKADSSPVKAGVETTTPSKQSNNKYAASSYLSLTPEQWKSHRSYSCQVTHEGSTVEKTVAPTECS
